By EC50 (read off the curve) is commonly meant the concentration needed to bring the measured effect to its halfway point.

The values that follow come from US20240285753A1.

Assay [1] concerns the target synthetic stem helix peptide (SARS-CoV-2 spike residues 1140-1164) (SARS-CoV-2), P0DTC2. In words: ELISA, peptide adsorbed on the plate, mAb titrated.
Assay [2] addresses synthetic fusion peptide (SARS-CoV-2 spike residues 808-833) (SARS-CoV-2), P0DTC2. In words: ELISA, coated antigen, mAb titrated.

B1: Cov30-14 (antibody)
chain 1: QVQLVQSGAEVKKPGASVKVSCQTSGYTFTSYYMHWVRQAPGQGLEWMGLITPSGDDTYYAQRFQGRVTMTRDTSTSPTYMELSSLTSEDTAVYYCAKMSRAGGFDVWGQGTLVTVSS
chain 2: EVVLTQSPGTLSLSPGERATLSCRASQSITGRYLAWYQQKPGQAPRLLMYGESSRVTGIPDRFSGGGSGTDFTLTISRLEPEDFAVYYCQHFASSPPTYTFGQGTKLEIR
Turning to B1, the half-maximal effective concentration (EC50 (read off the curve)) in assay [1] was determined as 0.03 µg/mL.

B2: Cov89-22 (antibody)
chain 1: QEQLVQSGAEVKKPGASVKVSCKSSGFTFSYFYLHWVRQAPGQGLEWMGIINPRGDGTRYAQKFQGRVTMTRDASTGTLYMELRSLRSEDTAVYYCARGADHGAFDIWGQGTMVTVSS
chain 2: EIVLTQSPGTLSLSPGERATLSCRASQSVRRNYFAWYQQKRGQAPRLLIYDASTRATGIPDRFSGSGSGTDFTLTISRLEPEDFAVYYCQQYDSSPPMYIFGQGTKLEIK
For B2, the EC50 (read off the curve) in assay [1] came to 0.02 µg/mL.

B3: COV44-79 (antibody)
chain 1: QVQLVESGGGVVQPGRSLRLSCAASGLTFSGYAMHWVRQAPGKGLEWVAVISRDARNKYYADSVKGRFTISRDNSKKTVYLEMNSLRVEDTAVYYCAILIIPGITEPGSPDALDIWGQGTMVSVSS
chain 2: DIQMTQSPSSMSASVGDRVTITCRASQDISKWLAWYQQRPGKAPKLLIYAASSLQSGVPSRFSGSGSGTDFTLTISSLQPEDFATYYCQQASSFPWSITFGQGTRLEIR
The molecule B3 showed an EC50 (read off the curve) in assay [2] of 0.7 µg/mL.
